# Laboratory results as given in paper PMC10991500, “A multi-enzyme cascade for efficient production of D-p-hydroxyphenylglycine from L-tyrosine” (Bioresources and Bioprocessing, 2021).
# Legend:
# PmL-AAD = system: T1, PmL-AAD; assay: initial rates by HPLC, Michaelis-Menten fit; assay type: biochemical, Proteus mirabilis; conditions: 50 mM Tris-HCl pH 8.0, 30 °C; substrate 1-20 mM
# T1 construct: recombinant in E. coli BL21(DE3), Tween 80 solubilised, HisTrap purified
# From the text: initial rates by HPLC, Michaelis-Menten fit on PmL-AAD
# [1] = substrate: O=C(O)C(=O)c1ccc(O)cc1; assay: initial rates of reductive amination, HPLC, Michaelis-Menten fit; assay type: biochemical, Corynebacterium glutamicum; conditions: 0.5 mM NADPH, 10 mM NH4Cl, 50 mM Tris-HCl pH 8.0, 30 °C, HPGA 1-20 mM
# From the text: initial rates of reductive amination, HPLC, Michaelis-Menten fit on CgDAPDH^BC621
# [2] = substrate: O=C(O)[C@@H](O)c1ccc(O)cc1; assay: initial rates by HPLC, Michaelis-Menten fit; assay type: biochemical, Pseudomonas aeruginosa; conditions: 0.5 mM NADP+, 50 mM Tris-HCl pH 8.0, 30 °C, substrate 1-20 mM
# From the text: initial rates by HPLC, Michaelis-Menten fit on PaMDH
Molecule,Km (PmL-AAD) [mM],Km [1] [mM],kcat [1] [s⁻¹],kcat/Km [1] [M⁻¹ s⁻¹],Km [2] [mM],kcat [2] [s⁻¹],kcat/Km [2] [M⁻¹ s⁻¹]
N[C@@H](Cc1ccc(O)cc1)C(=O)O [L-tyrosine],2.94 ± 1.04,–,–,–,–,–,–
"CgDAPDH^BC621 (Corynebacterium glutamicum ATCC 13032; D154G/H244N/Q150L/R195M/T169I) (protein, five-fold mutant BC621 in pET28a, recombinant in E. coli BL21(DE3), HisTrap purified) MTNIRVAIVGYGNLGRSVEKLIAKQPDMDLVGIFSRRATLDTKTPVFDVADVDKHADDVDVLFLCMGSATDIPEQAPKFAQFACTVDTYDNHRDIPRHRQVMNEAATAAGNVALVSTGWDPGMFSINRVYAAAVLAEHQQHTFWGPGLSLGHSGALRRIPGVQKAVQYILPSEDALEKARRGEAGDLTGKQTHKMQCFVVADAADHERIENDIRTMPDYFVGYEVEVNFIDEATFDSEHTGMPNGGHVITTGDTGGFNHTVEYILKLDRNPDFTASSQIAFGRAAHRMKQQGQSGAFTVLEVAPYLLSPENLDDLIARDV",–,20.37 ± 0.19,0.00317 ± 0.00617,0.15,–,–,–
"CgDAPDH^BC621 (Corynebacterium glutamicum ATCC 13032; D120S/D154G/H244N/Q150L/R195M/T169P) (protein, five-fold mutant BC621 in pET28a, recombinant in E. coli BL21(DE3), HisTrap purified) MTNIRVAIVGYGNLGRSVEKLIAKQPDMDLVGIFSRRATLDTKTPVFDVADVDKHADDVDVLFLCMGSATDIPEQAPKFAQFACTVDTYDNHRDIPRHRQVMNEAATAAGNVALVSTGWSPGMFSINRVYAAAVLAEHQQHTFWGPGLSLGHSGALRRIPGVQKAVQYPLPSEDALEKARRGEAGDLTGKQTHKMQCFVVADAADHERIENDIRTMPDYFVGYEVEVNFIDEATFDSEHTGMPNGGHVITTGDTGGFNHTVEYILKLDRNPDFTASSQIAFGRAAHRMKQQGQSGAFTVLEVAPYLLSPENLDDLIARDV",–,7.83 ± 0.03,0.0243 ± 0.0117,3.17,–,–,–
"CgDAPDH^BC621 (Corynebacterium glutamicum ATCC 13032; D154G/H244N/Q150L/R195M/T169P/W144S) (protein, five-fold mutant BC621 in pET28a, recombinant in E. coli BL21(DE3), HisTrap purified) MTNIRVAIVGYGNLGRSVEKLIAKQPDMDLVGIFSRRATLDTKTPVFDVADVDKHADDVDVLFLCMGSATDIPEQAPKFAQFACTVDTYDNHRDIPRHRQVMNEAATAAGNVALVSTGWDPGMFSINRVYAAAVLAEHQQHTFSGPGLSLGHSGALRRIPGVQKAVQYPLPSEDALEKARRGEAGDLTGKQTHKMQCFVVADAADHERIENDIRTMPDYFVGYEVEVNFIDEATFDSEHTGMPNGGHVITTGDTGGFNHTVEYILKLDRNPDFTASSQIAFGRAAHRMKQQGQSGAFTVLEVAPYLLSPENLDDLIARDV",–,8.07 ± 0.68,0.0225 ± 0.0232,2.83,–,–,–
"CgDAPDH^BC621 (Corynebacterium glutamicum ATCC 13032; D120S/D154G/H244N/Q150L/R195M/T169P/W144S) (protein, five-fold mutant BC621 in pET28a, recombinant in E. coli BL21(DE3), HisTrap purified) MTNIRVAIVGYGNLGRSVEKLIAKQPDMDLVGIFSRRATLDTKTPVFDVADVDKHADDVDVLFLCMGSATDIPEQAPKFAQFACTVDTYDNHRDIPRHRQVMNEAATAAGNVALVSTGWSPGMFSINRVYAAAVLAEHQQHTFSGPGLSLGHSGALRRIPGVQKAVQYPLPSEDALEKARRGEAGDLTGKQTHKMQCFVVADAADHERIENDIRTMPDYFVGYEVEVNFIDEATFDSEHTGMPNGGHVITTGDTGGFNHTVEYILKLDRNPDFTASSQIAFGRAAHRMKQQGQSGAFTVLEVAPYLLSPENLDDLIARDV",–,2.48 ± 0.28,0.0448 ± 0.005,18,–,–,–
"CgDAPDH^BC621 (Corynebacterium glutamicum ATCC 13032; D154G/H244N/Q150L/R195M/T169P) (protein, five-fold mutant BC621 in pET28a, recombinant in E. coli BL21(DE3), HisTrap purified) MTNIRVAIVGYGNLGRSVEKLIAKQPDMDLVGIFSRRATLDTKTPVFDVADVDKHADDVDVLFLCMGSATDIPEQAPKFAQFACTVDTYDNHRDIPRHRQVMNEAATAAGNVALVSTGWDPGMFSINRVYAAAVLAEHQQHTFWGPGLSLGHSGALRRIPGVQKAVQYPLPSEDALEKARRGEAGDLTGKQTHKMQCFVVADAADHERIENDIRTMPDYFVGYEVEVNFIDEATFDSEHTGMPNGGHVITTGDTGGFNHTVEYILKLDRNPDFTASSQIAFGRAAHRMKQQGQSGAFTVLEVAPYLLSPENLDDLIARDV",–,8.17 ± 0.89,0.0247 ± 0.00417,3,–,–,–
"PaMDH (Pseudomonas aeruginosa) (protein, recombinant in E. coli BL21(DE3), HisTrap purified) MSQNLFNVEDYRKLAQKRLPKMVYDYLEGGAEDEYGVKHNRDVFQQWRFKPKRLVDVSRRSLQAEVLGKRQSMPLLIGPTGLNGALWPKGDLALAQAATKAGIPFVLSTASNMSIEDLARQCDGDLWFQLYVIHREIAQGMVLKALHSGYTTLVLTTDVAVNGYRERDLHNRFKMPMSYTPKVMLDGCLHPRWSLDLVRHGMPQLANFVSSQTSSLEMQAALMSRQMDASFNWEALRWLRDLWPHKLLVKGLLSAEDADHCIAEGADGVILSNHGGRQLDCAVSPMEVLAQSVAKTGKPVLIDSGFRRGSDIVKALALGAEAVLLGRATLYGLAARGETGVDEVLTLLKADIDRTLAQIGCPDITSLSPDYLQSEGVTSTAPVDHLIGKGTHA",–,–,–,–,0.89 ± 0.91,0.123 ± 0.0122,179 ± 3.67
